Usually Kd stands for a measure of binding affinity in units of concentration. A word on the koff: it is the first-order rate constant of dissociation. Higher therefore signals fast dissociation. In general, kon refers to the rate constant with which the complex forms.

The target in one test is SARS-CoV-2 S2 protein (SARS-CoV-2, UniProt P0DTC2 686-1213).
Test [1] deals with SARS-CoV-2 spike S2 protein (SARS-CoV-2, UniProt P0DTC2 686-1213).
The target in test [2] is SARS-CoV-2 Spike (S) trimer (SARS-CoV-2, UniProt P0DTC2 16-1213). Briefly: ELISA on coated S trimer, 1:50.
Test [3] addresses SARS-CoV-2 spike receptor-binding domain (RBD) (SARS-CoV-2, UniProt P0DTC2 319-541).
Test [4] concerns the target SARS-CoV-2 spike S1 protein (SARS-CoV-2, UniProt P0DTC2 16-685).
Test [5] deals with SARS-CoV-2 spike protein on fully infectious (replication-competent) SARS-CoV-2 virus (SARS-CoV-2, UniProt P0DTC2 14-1273). Briefly: cell-based or functional assay.
Test [6] concerns the target SARS-CoV-1 spike protein on pseudovirus (SARS-CoV-1, UniProt P59594 14-1255). Briefly: cell-based or functional assay.
Test [7] addresses SARS-CoV-2 Wuhan-1 full-length Spike protein on pseudovirus (SARS-CoV-2, UniProt P0DTC2 14-1273). Briefly: cell-based or functional assay.
Test [8] has as its target SARS-CoV-2 spike receptor-binding domain (RBD) (SARS-CoV-2, UniProt P0DTC2 319-541). The source holds these as a separate data set.
Test [9] addresses SARS-CoV-2 spike S1 protein (SARS-CoV-2, UniProt P0DTC2 16-685). The source holds these as a separate data set.

B1: AB-009283 (antibody, V domains shown)
VH: EVQLVESGGGLIQPGGSLRLSCAASGFTVSSNYMSWVRQAPGKGLEWVSVIYSGGSTYYADSVKGRFTISRDNSKNTLYLQMNSLRAEDTAVYYCATSSFDYYYYFMDVWGKGTTVTVSS
VL: SYELTQPPSVSVSPGQTASITCSGDKLGDKYACWYHQKPGQSPVLVIYQDTKRPSGIPERFSASNSGNTATLTISGTQALDEADYYCQAWDSSIVVFGGGTKLTVL
As for B1, in the test with SARS-CoV-2 S2 protein, the affinity, expressed as Kd, was 22.7 nM; the koff is 0.000319 s⁻¹; the kon came to 14100 M⁻¹ s⁻¹.

B2: AB-009226 (antibody, V domains shown)
VH: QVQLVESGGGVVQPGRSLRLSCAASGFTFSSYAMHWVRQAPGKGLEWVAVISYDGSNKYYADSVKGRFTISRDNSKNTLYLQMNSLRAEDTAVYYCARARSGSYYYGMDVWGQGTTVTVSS
VL: QSALTQPASVSGSPGQSITISCTGTSSDVGGYNYVSWYQQHPGKAPKLMIYEVSNRPSGVSNRFSGSKSGNTASLTISGLQAEDEADYYCSSYTSSSTLYVFGTGTKVTVL
In test [1], B2 gave a Kd of 27.9 nM, a koff of 0.000783 s⁻¹ and a kon of 28100 M⁻¹ s⁻¹. Further, the “OD 450 nm” value in test [2] was found to be 2.33 OD.

B3: AB-010020 (antibody, V domains shown)
VH: QMQLVQSGPEVKKPGTSVKVSCKASGFTFTSSAVQWVRQARGQRLEWIGWIVVGSGNTNYAQKFQERVTITRDMSTSTAYMELSSLRSEDTAVYYCAAPACSSTSCYDGFDIWGQGTMVTVSS
VL: not shown
On to B3, for which, in test [3], binding was put at a Kd of 2.16 nM, the dissociation rate constant (koff) stood at 0.00212 s⁻¹ and the kon worked out at 980000 M⁻¹ s⁻¹. In test [4], this molecule registered a Kd of 13.5 nM, a koff of 0.0069 s⁻¹ and a kon of 512000 M⁻¹ s⁻¹.

B4: AB-010021 (antibody, V domains shown)
VH: QMQLVQSGPEVKKPGTSVKVSCKASGFTFTSSAVQWVRQARGQRLEWIGWIVVGSGNTNYAQKFQERVTITRDMSTSTAYMELSSLRSEDTAVYYCAAVYCSGGSCLDAFDIWGQGTMVTVSS
VL: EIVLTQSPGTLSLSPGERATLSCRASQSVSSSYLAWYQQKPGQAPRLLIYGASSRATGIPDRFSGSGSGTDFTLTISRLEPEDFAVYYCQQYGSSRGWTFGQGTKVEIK
In test [3], B4 came in with a Kd of 12.4 nM, a koff of 0.00275 s⁻¹ and a kon of 221000 M⁻¹ s⁻¹. In test [4], this molecule displayed a Kd of 12.5 nM, a dissociation rate constant (koff) of 0.00214 s⁻¹ and a kon of 171000 M⁻¹ s⁻¹.

B5: AB-009631 (antibody, V domains shown)
VH: EVQLVESGGGLVQPGGSLRLSCAASGFNFSFYWMSWVRQAPGKGLEWVANIKQDGSEKYYVDSVKGRFTISRDNAKNSLYLQMNSLRAEDTAVYYCARLSGGSWYFDYWGQGTLVTVSS
VL: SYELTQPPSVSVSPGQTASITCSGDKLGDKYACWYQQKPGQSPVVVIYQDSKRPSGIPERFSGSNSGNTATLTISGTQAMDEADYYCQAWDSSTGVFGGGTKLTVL
In the test with SARS-CoV-2 S2 protein, B5 showed a Kd of 0.0273 nM, a koff of 3.31e-07 s⁻¹ and a kon of 12100 M⁻¹ s⁻¹.

B6: AB-009614 (antibody, V domains shown)
VH: QVQLVESGGGVVQPGRSLRLSCAASGFTFSSYGMHWVRQAPGKGLEWVAVISYDGSNKYYADSVKGRFTISRDNSKNTLYLQMNSLRAEDTAVYYCAKDQKYYDILTGYYRSTYYYYYYGMDVWGQGTTVTVSS
VL: not shown
Consider B6, for which the “Neutralization (Infectious virus; (µg/mL))” value (“Neutralization” for short) in [5] turned out to be 0.075 µg/mL. The figures for the “Pseudovirus Neturalization” value in test [6] and in [7] were > 50 µg/mL and 0.142 µg/mL, respectively.

B7: AB-009281 (antibody, V domains shown)
VH: EVQLVETGGGLIQPGGSLRLSCAASGFTVSSNYMSWVRQAPGKGLEWVSVIYSGGSTYYADSVKGRFTISRDNSKNTLYLQMNSLRAEDTAVYYCARDLYYYGMDVWGQGTTVTVSS
VL: DIQLTQSPSFLSASVGDRVTITCRASQGISSYLAWYQQKPGKAPKLLIYAASTLQSGVPSRFSGSGSGTEFTLTISSLQPEDFATYYCQQLNSYPTFGQGTKVEIK
Turning to B7, the “Neutralization” value in test [5] worked out at 33.7 µg/mL. Besides, the “Pseudovirus Neturalization” value in [6] is > 50 µg/mL; in [7], 0.215 µg/mL.

B8: AB-009271 (antibody, V domains shown)
VH: EVQLVESGGGLIQPGGSLRLSCAASGFIVSSNYMSWVRQAPGKGLEWVSVIYSGGSTYYADSVKGRFTISRDNSKNTLYLQMNSLRAEDTAVYYCARDYGDFYFDYWGQGTLVTVSS
VL: EIVMTQSPATLSVSPGERATLSCRASQSVSSNLAWYQQKPGQAPRLLIYGASTRATGIPARFSGSGSGTEFTLTISSLQSEDFAVYYCQQYYNWPRTFGQGTKVEIK
In test [3], B8 gave a Kd of 15.1 nM, a koff of 0.00141 s⁻¹ and a kon of 93200 M⁻¹ s⁻¹. Also, in [4], binding was put at a Kd of 55.4 nM, the off-rate (koff) worked out at 0.0042 s⁻¹ and the kon came out at 75900 M⁻¹ s⁻¹.

B9: AB-009613 (antibody, V domains shown)
VH: EVQLVESGGGLIQPGGSLRLSCAASGFTVSSNYMSWVRQAPGKGLEWVSVIYSGGSTYYADSVKGRFTISRDNSKNTLYLQMNSLRAEDTAVYYCARDYGDFYFDYWGQGTLVTVSS
VL: not shown
In test [3], B9 displayed a Kd of 4.26 nM, a koff of 0.000313 s⁻¹ and a kon of 73400 M⁻¹ s⁻¹. Besides, in test [4], the Kd was determined as 16.1 nM, the koff amounted to 0.00102 s⁻¹ and the kon amounted to 63600 M⁻¹ s⁻¹.

B10: AB-009676 (antibody, V domains shown)
VH: QVQLQQWGAGLLKPSETLSLTCAVYGGSFSGYYWSWIRQPPGKGLEWIGEINHSGSTNYNPSLKSRVTISVDTSKNQFSLKLSSVTAADTAVYYCARLSRQWLVRPHIYYFDYWGQGTLVTVSS
VL: DIQMTQSPSTLSASVGDRVTITCRASQSVSSYLNWYQQKPGKAPKLLIYAASSLQSGVPSRFSGSGSGTDFTLTISSLQPEDFATYFCQQSYSTPRTFGQGTKLEIK
As for B10, in the test with SARS-CoV-2 S2 protein, the equilibrium dissociation constant (Kd) is 0.0456 nM, the koff is 3.12e-07 s⁻¹ and the kon was found to be 6840 M⁻¹ s⁻¹.

B11: AB-009610 (antibody, V domains shown)
VH: QVQLVQSGAEVKKPGSSVKVSCKASGGTFSNYAISWVRQAPGQGLEWMGRIIPILGIANYAQKFQGRVTITADKSTSTAYMELSSLRSEDTAVYYCATTPYYYDSSGYYLDYWGQGTLVTVSS
VL: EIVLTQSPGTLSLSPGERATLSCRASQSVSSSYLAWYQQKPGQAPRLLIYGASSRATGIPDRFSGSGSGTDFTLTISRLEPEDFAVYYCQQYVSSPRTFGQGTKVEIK
Take B11: in test [3], the affinity, expressed as Kd, was 21.6 nM; the koff is 0.00107 s⁻¹; the on-rate constant (kon) is 49500 M⁻¹ s⁻¹. Also, in test [4], the dissociation constant Kd amounted to 111 nM, the koff worked out at 0.00456 s⁻¹ and the kon was 41100 M⁻¹ s⁻¹.

B12: AB-009710 (antibody, V domains shown)
VH: LVQLIQSGAEVVKPGSSVKVSCTASGGSYSSYTLSWVRQAPGQGVEWLGRISPVLNTTYYAQKLEGRVTMTADESTSTVYMQLSSLRSEDTAVYYCARLASMNGVDIWGQGTSVTVSS
VL: EIVLTQSPGTLSLSPGERATLSCRASQSVYGSYLAWYQQKPGQAPRLLIYGGSSRATGIPDRFSGSGSGTDFTLTISRLEPEDFAVYYCHQYGTSRYSFGQGTKLDIK
For the molecule B12, in the test with SARS-CoV-2 S2 protein, the affinity, expressed as Kd, was 46.8 nM; the koff was determined as 0.000591 s⁻¹; the kon was found to be 12600 M⁻¹ s⁻¹.

B13: AB-009346 (antibody, V domains shown)
VH: EVQLVESGGGVVRPGGSLRLSCAASGFTFDDYGMSWVRQAPGKGLEWVSGINWNGGSTGYADSVKGRFTISRDNAKNSLYLQMNSLRAEDTALYYCARWPLLGISGYYHYYMDVWGKGTTVTVSS
VL: QSALTQPRSVSGSPGQSVTISCTGTSSDVGGYNYVSWYQQHPGKAPKLMIYDVSKRPSGVPDRFSGSKSGNTASLTISGLQAEDEADYYCCSYAGSYTLLFGGGTKLIVL
In the case of B13, the “Neutralization” value in test [5] is 2.14 µg/mL. Besides, the “Pseudovirus Neturalization” value in [6] was > 50 µg/mL; in test [7] it was 0.774 µg/mL.

B14: AB-009273 (antibody, V domains shown)
VH: QVQLVQSGAEVKKPGSSVKVSCKASGGTFSSYAISWVRQAPGQGLEWMGGIIPIFGTANYAQKFQGRVTITTDESTSTAYMELSSLRSEDTAVYYCARVGVYDSSGYYFDYWGQGTLVTVSS
VL: EIVLTQSPATLSLSPGERATLSCRASQSVSSYLAWYQQKPGQAPRLLIYDASNRATGIPARFSGSGSGTDFTLTISSLEPEDFAVYYCQQRSNWPPRLTFGGGTKVEIK
In the test with SARS-CoV-2 S2 protein, B14 returned a dissociation constant Kd of 6.87 nM, an off-rate constant (koff) of 0.000148 s⁻¹ and a kon of 21500 M⁻¹ s⁻¹.

B15: AB-009291 (antibody, V domains shown)
VH: EVHLLESGGGLVQPGGSLRLSCAASGFTFTTYAMFWVRQAPGKGLEWVSAINAGGAKTHYADSVRGRFTISRDNSKSTLYLHMDRLRVGDTAIYYCAKVPSYIYDSRDDYLDFWGQGTLVTVSS
VL: EIVLTQSPATLSLSPGERATLSCRASQSVSSYLAWYQQRPGQAPRLLIYDASSRATGIPVRFSGSGSGTDFTLTISSLEPEDFAVYYCQQRSDWPLLTFGGGTKVEIK
In test [1], B15 gave a Kd of 0.0174 nM, a koff of 3.28e-07 s⁻¹ and a kon of 18900 M⁻¹ s⁻¹. Also, the “OD 450 nm” value in test [2] is 2.26 OD.

B16: AB-009251 (antibody, V domains shown)
V domain 1: QVQLVQSGAEVKKPGASVKVSCKTSGYTFTTFYIHWVRQVPGQGLEWMGIINPDGGSTNYAQEFQARVTMTTDTSTSTAYMELSSLRFEDTAVFYCATSLGAPPGLSPRTGPQRRGPPGFDFWGQGTLITVSA
V domain 2: QSVLTQPPSVSGAPGQRVTISCTGSSSNIGAGYDVHWYQQLPGTAPKLLIFDNNNRPSGVPYRFSGSRSGTSASLAITGLQPEDEADYYCQSYDSSLSGRVFGGGTRVTVL
In test [8], B16 came in with a Kd of 9.31 nM, a koff of 0.000469 s⁻¹ and a kon of 50400 M⁻¹ s⁻¹. For the same molecule, in test [9], the affinity, expressed as Kd, was 48.1 nM; the koff came out at 0.000544 s⁻¹; the kon was found to be 11300 M⁻¹ s⁻¹. For the same molecule, the “OD 450 nm” value in test [2] was found to be 0.886 OD.

B17: AB-009363 (antibody, V domains shown)
VH: EVQLLESGGGLVQPGGSLRLSCAASGFTFSSFAMTWIRQAPGKGLEWISAIGGDGGATYYVDSIKGRFTISRDNSKNTVYLHMNGLRVEDTAVYYCATPSPTRYSWGQGTLVTVSS
VL: DIVMTQSPDSLAVSLGERATLNCKSSQSVLYSSNNKNYLAWYQQKPGQPPKLLFYWASTRQSGVPDRFSGSGSGTDFTLTISSLQAEDGAVYYCQQYHKTPHTFGQGTKLEIK
Regarding B17, in test [1], the dissociation constant Kd was 192 nM, the dissociation rate constant (koff) came out at 0.0016 s⁻¹ and the kon was found to be 8330 M⁻¹ s⁻¹. The “OD 450 nm” value in test [2] amounted to 2.94 OD.

(Values after patent US20240327505A1 (published 2024).)
